The results in this text go back to US20250313631A1 (HUMMINGBIRD BIOSCIENCE PTE, published 2025).

Experiment [1] deals with T1, recombinant human VISTA (His-tagged) (human, UniProt Q9H7M9 33-194).
T1 construct: bought soluble protein (Sino Biological); also called hVISTA; human VISTA polypeptide
Description: antigen-binding ELISA, day 30 at 40°C. On the technique in general: An ELISA detects its analyte on a solid surface through an enzyme-linked reagent.

Experiment [2] has as its target T1, recombinant human VISTA (His-tagged). Description: antigen-binding ELISA; HMBD-002 in F9, day 30 at 40°C.
For experiment [3] the target is unchanged. Description: antigen-binding ELISA; reference standard run with the day 20 samples.
The next experiment addresses T2, human FcγRIII (CD16a) (human, UniProt P08637 17-208).
T2 construct: also called human CD16a
Description: ELISA, plate coated with human CD16a (FcγRIII), detection with HRP anti-human Fc antibody.

Experiment [4] deals with T1, recombinant human VISTA (His-tagged). Description: ELISA on coated human VISTA, antibody diluted in buffer of pH 6.
In the next experiment the target is human PD-1 (human, UniProt Q15116 25-167). Description: ELISA, plate coated with human PD-1, antibody titrated.
Experiment [5] addresses T3, recombinant cynomolgus macaque VISTA (His-tagged) (cynomolgus macaque, UniProt A0A7N9IB00 33-194).
T3 construct: also called cyno VISTA; cynomolgus monkey VISTA
Description: ELISA, plate coated with cyno VISTA.

Experiment [6] addresses T1, recombinant human VISTA (His-tagged). Description: ELISA, plate coated with human VISTA.
Experiment [7] addresses T4, recombinant rat VISTA (His-tagged) (rat, UniProt A0ABK0L5H3 33-192).
T4 sequence: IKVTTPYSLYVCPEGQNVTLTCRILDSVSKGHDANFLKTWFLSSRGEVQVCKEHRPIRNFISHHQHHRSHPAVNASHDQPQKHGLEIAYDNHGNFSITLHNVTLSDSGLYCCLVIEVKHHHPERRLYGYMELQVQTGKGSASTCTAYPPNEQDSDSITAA
Description: ELISA, plate coated with rat VISTA.

The target of experiment [8] is T5, recombinant mouse VISTA (His-tagged) (mouse, UniProt Q9D659 33-191).
T5 construct: also called murine VISTA; mVISTA
T5 sequence (looked up): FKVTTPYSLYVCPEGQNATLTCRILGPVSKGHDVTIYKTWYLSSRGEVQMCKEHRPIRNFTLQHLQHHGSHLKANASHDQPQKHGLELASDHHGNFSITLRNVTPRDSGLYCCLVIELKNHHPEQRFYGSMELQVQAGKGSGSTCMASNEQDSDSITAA
Description: ELISA, plate coated with mouse VISTA.

For a further experiment, the target named is T6, VISTA-Fc (UniProt Q9H7M9 33-194).
T6 construct: also called VISTA-Ig; not shown: Fc/Ig part not described
Description: competition ELISA: VISTA-Fc coated, VSIG3-His 0.3 ug/ml as the blocked ligand, anti-His-HRP detection.

The target in experiment [9] is T1, recombinant human VISTA (His-tagged). Description: ELISA, plate coated with human VISTA; unit nM from the legend paragraph 697.
In experiment [10] the target is T5, recombinant mouse VISTA (His-tagged). Description: ELISA, plate coated with mouse VISTA; unit nM from the legend paragraph 697.
The target in experiment [11] is T1, recombinant human VISTA (His-tagged). Description: BLI (Octet), 1:1 global fit, human VISTA captured.
For experiment [12] the target is unchanged. Description: ELISA, plate coated with human VISTA; unit nM from the legend paragraph 699.
Experiment [13] concerns the target T5, recombinant mouse VISTA (His-tagged). Description: BLI (Octet), 1:1 global fit, mouse VISTA captured.
The target in a further experiment is T7, human PD-L1 (human, UniProt Q9NZQ7 19-239).
T7 construct: captured through a His tag in the BLI experiments; also called hPD-L1; B7H1/PDL-1
Description: BLI (Octet), His-tagged human PD-L1 on anti-Penta-HIS biosensor, antibody 500-15.6 nM.

Experiment [14] deals with T1, recombinant human VISTA (His-tagged). Description: ELISA, plate coated with human VISTA; unit nM from the legend paragraph 698.
Experiment [15] addresses T5, recombinant mouse VISTA (His-tagged). Description: ELISA, plate coated with mouse VISTA; unit nM from the legend paragraph 699.
For experiment [16] the target is unchanged. Description: ELISA, plate coated with mouse VISTA; unit nM from the legend paragraph 698.
The target of experiment [17] is T1, recombinant human VISTA (His-tagged). Description: BLI (Octet), 1:1 global fit, His-tagged human VISTA captured. (Biolayer interferometry detects binding as a change in optical thickness at a sensor tip.)
In experiment [18] the target is T5, recombinant mouse VISTA (His-tagged). Description: BLI (Octet), 1:1 global fit, His-tagged mouse VISTA captured.
The target is the same in experiment [19]. The experiment is described as above. This is another data set of the same source.

B1: V4-C26 hIgG4 (antibody)
heavy: not shown
light: EIVLTQSPATLSLSPGERATLSCRASSSVGYIHWYQQKPGQAPRPIIYTTSNRATGIPARFSGSGSGTDNTLTISSLEPEDSAVYYCQQWSSYPPITFGGGTKLEVKRTVAAPSVFIFPPSDEQLKSGTASVVCLLNNFYPREAKVQWKVDNALQSGNSQESVTEQDSKDSTYSLSSTLTLSKADYEKHKVYACEVTHQGLSSPVTKSFNRGEC
notes: human IgG4 (S228P)/kappa format; also called HMBD-002; HMBD-002-V4C26
One may read the EC50 as the concentration giving half of the maximal effect. For B1, in experiment [1], the “fold increase in affinity” value stood at 1.65 fold. Moreover, the EC50 in experiment [2] worked out at 0.0237 nM; in experiment [3], 0.0355 nM; in [4], 0.0589 nM. Besides, the binding result with human FcγRIII (CD16a) is “no binding (tested: about 2e-7 M)”; with human PD-1, “no binding (tested: about 3e-8 M)”.

B2: anti-VISTA clone 4M2-C12 IgG1 (antibody)
heavy: not shown
light: DIVITQTPAILSTSPGEKVTMTCRASSSVGYIHWYQQKPGSSPKPWIYATSNLASGVPARFSGSGSGTSNSLTITRVEAEDAATYYCQQWSSYPPITFGGGTKLEVKRTVAAPSVFIFPPSDEQLKSGTASVVCLLNNFYPREAKVQWKVDNALQSGNSQESVTEQDSKDSTYSLSSTLTLSKADYEKHKVYACEVTHQGLSSPVTKSFNRGEC
notes: mouse variable regions on human IgG1/kappa constant regions; also called V4; V4pr
Regarding B2, the half-maximal effective concentration (EC50) in experiment [5] is 0.0472 nM; in experiment [6], 0.0319 nM; in experiment [7], 1.25 nM; in [8] it was 0.387 nM; in experiment [9], 0.036 nM; in experiment [10], 0.43 nM. Also, the “IC50 (read off the curve)” value in the experiment with VISTA-Fc is approximately 4 nM.

B3: anti-VISTA clone V4-C24 IgG1 (antibody, V domains shown)
VH: QVQLQESGPGLVKPSDTLSLTCTVSGYSITSDYTWNWIRQTPGKGLEWIGHITYSGSVSYNPSLRSRVTISRDTSKNQFSLKLSSVTAADTATYSCARALYYPWYFDVWGTGTTVTVSS
VL: EIVLTQSPATLSLSPGERATLSCRASSSVGYIHWYQQKPGQAPRPLIYTTSYRATGIPARFSGSGSGTDNTLTISSLEPEDSAVYYCQQWSSYPPITFGGGTKLEVKR
A word on the Kd: it is a measure of binding affinity in units of concentration. Broadly, the koff is a measure of how fast the partners let go of each other. Usually kon stands for the rate constant with which the complex forms. On to B3, for which the Kd in experiment [11] is less than 0.001 nM; in experiment [13] it was 0.202 nM; in [17] it was less than 0.001 nM; in [18] it was less than 0.001 nM; in experiment [19], less than 0.001 nM. For the same molecule, the koff was less than 1e-07 s⁻¹ in experiment [11]; 7.6e-05 s⁻¹ in [13]; less than 1e-07 s⁻¹ in experiment [17]; less than 1e-07 s⁻¹ in experiment [18]; less than 1e-07 s⁻¹ in [19]. The kon in experiment [11] is 373000 M⁻¹ s⁻¹; in experiment [13], 378000 M⁻¹ s⁻¹; in experiment [17] it was 384000 M⁻¹ s⁻¹; in experiment [18], 462000 M⁻¹ s⁻¹; in experiment [19], 401000 M⁻¹ s⁻¹. In addition, the EC50 in experiment [12] worked out at 0.073 nM; in [14] it was 0.032 nM; in experiment [5] it was 0.0385 nM; in [15], 0.116 nM; in [16], 0.042 nM; in experiment [6], 0.0268 nM. Besides, the EC50 in [7] came to 0.201 nM; in experiment [8], 0.0304 nM; in experiment [9], 0.01 nM; in experiment [10], 0.017 nM. In addition, in the experiment with human PD-L1, the binding result is “no binding (tested: 500 nM)”.

B4: anti-VISTA clone V4-C27 IgG1 (antibody, V domains shown)
VH: QVQLQESGPGLVKPSDTLSLTCTVSGYSITSDYTWNWIRQTPGKGLEWIGHITYSGSVSYNPSLRSRVTISRDTSKNQFSLKLSSVTAADTATYSCARALYYPWYFDVWGTGTTVTVSS
VL: EIVLTQSPATLSLSPGERATLSCRASSSVGYIHWYQQKPGQAPRPLIYATYNRATGIPARFSGSGSGTDNTLTISSLEPEDSAVYYCQQWSSYPPITFGGGTKLEVKR
Consider B4, for which the Kd was 0.119 nM in experiment [11]; 0.395 nM in [13]; less than 0.001 nM in [17]; 0.137 nM in [18]; less than 0.001 nM in experiment [19]. Besides, the off-rate (koff) in [11] was 6.1e-05 s⁻¹; in experiment [13], 0.00016 s⁻¹; in [17], less than 1e-07 s⁻¹; in experiment [18], 5.5e-05 s⁻¹; in experiment [19], less than 1e-07 s⁻¹. The kon in [11] was 511000 M⁻¹ s⁻¹; in [13], 392000 M⁻¹ s⁻¹; in experiment [17], 465000 M⁻¹ s⁻¹; in [18] it was 398000 M⁻¹ s⁻¹; in experiment [19], 426000 M⁻¹ s⁻¹. The EC50 worked out at 0.047 nM in [12]; 0.037 nM in experiment [14]; 0.0324 nM in [5]; 0.073 nM in experiment [15]; 0.047 nM in experiment [16]; 0.0295 nM in [6]. Also, the EC50 was 0.196 nM in experiment [7], 0.0374 nM in [8], less than 0.0007 nM in [9] and 0.0023 nM in experiment [10]. Also, in the experiment with human PD-L1, the binding result was “no binding (tested: 500 nM)”.

B5: anti-VISTA clone V4-C26 IgG1 (antibody)
heavy: not shown
light: EIVLTQSPATLSLSPGERATLSCRASSSVGYIHWYQQKPGQAPRPIIYTTSNRATGIPARFSGSGSGTDNTLTISSLEPEDSAVYYCQQWSSYPPITFGGGTKLEVKRTVAAPSVFIFPPSDEQLKSGTASVVCLLNNFYPREAKVQWKVDNALQSGNSQESVTEQDSKDSTYSLSSTLTLSKADYEKHKVYACEVTHQGLSSPVTKSFNRGEC
As to B5, the Kd was 0.241 nM in experiment [11]; 0.53 nM in experiment [13]; less than 0.001 nM in [17]; 0.183 nM in experiment [18]; less than 0.001 nM in [19]. The dissociation rate constant (koff) is 9.8e-05 s⁻¹ in experiment [11]; 0.0002 s⁻¹ in experiment [13]; less than 1e-07 s⁻¹ in experiment [17]; 7.6e-05 s⁻¹ in experiment [18]; less than 1e-07 s⁻¹ in [19]. In addition, the kon in experiment [11] was 407000 M⁻¹ s⁻¹; in [13] it was 382000 M⁻¹ s⁻¹; in experiment [17], 404000 M⁻¹ s⁻¹; in experiment [18], 413000 M⁻¹ s⁻¹; in experiment [19], 403000 M⁻¹ s⁻¹. The EC50 in experiment [12] turned out to be 0.064 nM; in experiment [14] it was 0.038 nM; in experiment [5] it was 0.0356 nM; in experiment [15], 0.086 nM; in experiment [16], 0.058 nM; in experiment [6], 0.0241 nM. For the same molecule, the EC50 in [7] stood at 0.16 nM; in experiment [8], 0.0325 nM; in experiment [9], 0.0034 nM; in experiment [10], 0.0089 nM. Moreover, in the experiment with human PD-L1, the binding result is given as “no binding (tested: 500 nM)”.
